According to US20190175744A1, “INSULIN-INCRETIN CONJUGATES” (Merck Sharp & Dohme Corp., priority 2016, published 2019):

Assays:
[1] = biological target: minipig insulin receptor (IR) (minipig); assay: cell-based or functional assay
[2] = biological target: human insulin receptor (IR), CHO cell line overexpressing human IR (pAkt assay) (human) (UniProt P06213); assay: cell-based or functional assay

Insulin Receptor pAK Assay EC50, Minipig [1]	Insulin Receptor pAK Assay EC50, Human [2]	Substance
0.5 nM	0.51 nM	Insulin levemir (ligand)
–	0.48 nM	Insulin degludec (ligand)
